{"source": "paper doi:10.1101/2020.05.05.080093", "test_in_all_cases": "ITC", "key": {"[1]": {"biological_target": "Odin_LCB_4 TF-Vps4-MIT (Microtubule Interacting and Transport domain of Vps4 of Odinarchaeota_LCB_4) (Odinarchaeota_LCB_4)"}, "[2]": {"biological_target": "Loki_GC14_75 TF-Vps4-MIT (Microtubule Interacting and Transport domain of Vps4 of Lokiarchaeum_GC14_75) (Lokiarchaeum_GC14_75)"}, "[3]": {"biological_target": "Heimdall_LC_3 TF-Vps4-MIT (Microtubule Interacting and Transport domain of Vps4 of Heimdallarchaeota_LC_3) (Heimdallarchaeota_LC_3)"}}}
{"substance": "Odin_LCB_4 TF-Vps20/32/60 (natural protein)", "values": [{"measurement": "dH", "setting": "[1]", "result": 331, "unit": "kcal/mol"}]}
{"substance": "Loki_GC14_75 TF-Vps2/24/46 (natural protein)", "values": [{"measurement": "dH1 (Sequential Binding Sites, first site)", "setting": "[2]", "result": -121, "unit": "kcal/mol"}, {"measurement": "dH2 (Sequential Binding Sites, second site)", "setting": "[2]", "result": 422, "unit": "kcal/mol"}]}
{"substance": "Heimdall_LC_3 TF-Vps20/32/60 (natural protein)", "values": [{"measurement": "dH1 (Sequential Binding Sites, first site)", "setting": "[3]", "result": 2780, "unit": "kcal/mol"}, {"measurement": "dH2 (Sequential Binding Sites, second site)", "setting": "[3]", "result": -2310, "unit": "kcal/mol"}]}
{"substance": "Odin_LCB_4 Vps2/24/46 (natural protein)", "values": [{"measurement": "dH", "setting": "[1]", "result": 392, "unit": "kcal/mol"}]}
{"substance": "Loki_GC14_75 TF-Vps20/32/60 (natural protein)", "values": [{"measurement": "dH", "setting": "[2]", "result": 1420, "unit": "kcal/mol"}]}
{"substance": "Heimdall_LC_3 TF-Vps2/24/46 (natural protein)", "values": [{"measurement": "dH1 (Sequential Binding Sites, first site)", "setting": "[3]", "result": -473, "unit": "kcal/mol"}, {"measurement": "dH2 (Sequential Binding Sites, second site)", "setting": "[3]", "result": 931, "unit": "kcal/mol"}]}
